# Source: the supplement of paper PMC10126150
# ± gives the standard deviation of the averaged measurements.
# Tested on: ATP
# Assay: switch fluorescence ratio, 500 uM ATP over buffer (Cy3 cluster intensity, sum of 5 cycles each) (fold (ratio)); higher = stronger signal-on switching upon ATP binding; sequences stand for … in TCGTCGGCAGCGTCAGATGTGTATAAGAGACAGTTTTTTTTTTTTTTTTTTTTTTTTT…TC
# Settings: aptamer strand: ATP DNA aptamer (quencher-CACCTGGGGGAGTATTGCGGAGGAAGG + anchor), 100 nM annealed; ATP concentration: 500 uM
# Outline: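 Cy3-labelled switching-strand clusters on a modified Illumina MiSeq flow-cell were annealed to 100 nM quencher-labelled ATP aptamer and imaged first in selection buffer, then after 15 min with 500 uM ATP at 22 °C. NaOH stripping and re-annealing separated each of five buffer/ATP cycles, and clusters outside 100-1000 RFU were excluded. The fluorescence ratio sums target-cycle Cy3 intensity over buffer-cycle Cy3 intensity per cluster and averages it per switch-domain sequence.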
# 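Note: ATP exposure 15 min at 22 °C before imaging.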
row,Sequence,switch fluorescence ratio
1,TCATGGTACG,1.06 ± 0.022
2,TCATGGTCCC,1.02 ± 0.018
3,TCATGGTTG,1.01 ± 0.01
4,TCATGTACCG,1.05 ± 0.044
5,TCATGTGCGG,0.9639 ± 0.0022
6,TCATTAAGGT,0.995 ± 0.03
7,TCATTAGGGG,0.994 ± 0.041
8,TCATTATTCG,0.985 ± 0.027
9,TCATTTCGA,0.988 ± 0.02
10,TCATTTGGAA,0.99 ± 0.025
11,TCATTTGTTG,1.01 ± 0.035
12,TCATTTTTGC,0.979 ± 0.052
13,TCCAAAGAGA,0.97 ± 0.039
14,TCCAAAGAGG,0.997 ± 0.018
15,TCCAACTCCA,1.11 ± 0.0039
16,TCCAAGTGTG,1.03 ± 0.021
17,TCCAATTGCG,0.953 ± 0.021
18,TCCACATCAA,1.197 ± 0.0086
19,TCCACGTTGG,1.01 ± 0.0067
20,TCCAGAAAGG,1.014 ± 0.0031
21,TCCAGATAGG,0.997 ± 0.048
22,TCCAGGGCGG,1.06 ± 0.022
23,TCCAGGGGGT,2.41 ± 0.044
24,TCCAGGTAGT,1.594 ± 0.012
25,TCCAGGTGTG,2.77 ± 0.42

row,Sequence,switch fluorescence ratio
1,TCCAGTAGGT,1.01 ± 0.0032
2,TCCAGTTAGT,0.977 ± 0.013
3,TCCATACTGG,1.004 ± 0.0073
4,TCCATAGGGC,1.002 ± 0.0048
5,TCCATATGCT,0.9941 ± 0.0093
6,TCCATGGGGT,0.9836 ± 0.0079
7,TCCATTAGAT,1.019 ± 0.0066
8,TCCATTGTCC,1.08 ± 0.052
9,TCCATTTTAA,1.055 ± 0.0017
10,TCCCAGAACG,1.062 ± 0.0077
11,TCCCAGCTGT,1.12 ± 0.033
12,TCCCGTATCC,1.07 ± 0.036
13,TCCCTTAGAG,1.037 ± 0.0024
14,TCCGAACCTT,1.88 ± 0.086
15,TCCGAGAGAG,1.25 ± 0.053
16,TCCGCAGATT,4.02 ± 0.047
17,TCCGGCTATT,1.108 ± 0.0087
18,TCCGGGAGTG,1.078 ± 0.0027
19,TCCGGGCAGG,1.14 ± 0.023
20,TCCGGGCTGG,1.02 ± 0.013
21,TCCGGGGGAG,1 ± 0.023
22,TCCGGGGGAT,1.32 ± 0.38
23,TCCGGGGGTA,1.12 ± 0.12
24,TCCGGGTAGG,1.036 ± 0.0049
25,TCCGGGTATT,1.078 ± 0.0025

row,Sequence,switch fluorescence ratio
1,TCCGGTTGCA,2.49 ± 0.12
2,TCCGTGTCTA,1.07 ± 0.022
3,TCCGTGTGGT,1.07 ± 0.051
4,TCCGTTGGGG,1.05 ± 0.15
5,TCCTCAAGTT,1.23 ± 0.015
6,TCCTCAGGAT,1.02 ± 0.018
7,TCCTCGTCTC,1.69 ± 0.038
8,TCCTGAAAAC,1.1 ± 0.087
9,TCCTGAAATT,0.987 ± 0.015
10,TCCTGAGGAT,1 ± 0.058
11,TCCTGCATGG,1.22 ± 0.037
12,TCCTGGGAT,1.01 ± 0.03
13,TCCTGGGTAT,1.69 ± 0.98
14,TCCTGGGTTT,1.27 ± 0.48
15,TCCTGTACTG,1.04 ± 0.062
16,TCCTTAGTTC,0.969 ± 0.035
17,TCCTTCTTTA,1.38 ± 0.43
18,TCCTTGGTCG,1.04 ± 0.031
19,TCGAAAAGGG,0.992 ± 0.015
20,TCGAAACGGG,1.14 ± 0.24
21,TCGAAGAGCG,0.976 ± 0.045
22,TCGAAGCCAG,1.061 ± 0.0045
23,TCGAAGCCTA,1.17 ± 0.02
24,TCGAAGGGTG,0.999 ± 0.04
25,TCGAAGTATC,1.12 ± 0.058

row,Sequence,switch fluorescence ratio
1,TCGAATGGAT,0.991 ± 0.011
2,TCGAATGGGG,0.961 ± 0.014
3,TCGACAGTCC,1.037 ± 0.0085
4,TCGACGGGTG,1.02 ± 0.043
5,TCGACTGCGT,1.056 ± 0.005
6,TCGAGGAAGT,0.999 ± 0.062
7,TCGAGGATGT,0.976 ± 0.019
8,TCGAGGGAAC,1.03 ± 0.018
9,TCGAGGGCGA,1.146 ± 0.0097
10,TCGAGGGTAG,1.02 ± 0.018
11,TCGAGGTCGA,1.01 ± 0.039
12,TCGAGTTG,0.9972 ± 0.0093
13,TCGATACTTT,1.03 ± 0.021
14,TCGATCCTGA,0.998 ± 0.032
15,TCGATGGACT,1.03 ± 0.014
16,TCGATGGATG,1.025 ± 0.0058
17,TCGATGGCAG,1.059 ± 0.0033
18,TCGATGTGTT,0.9592 ± 0.0086
19,TCGATGTTGG,0.984 ± 0.03
20,TCGATTGGGG,0.9682 ± 0.0089
21,TCGCATCCTT,0.989 ± 0.017
22,TCGCATTTTT,1.11 ± 0.13
23,TCGCCCTCCA,1.26 ± 0.12
24,TCGCCGAAAT,1.7 ± 0.35
25,TCGCGAATGG,1.11 ± 0.02
